Experimental data taken from patent US20080038777A1.

Experiments:
[1] = biological target: human C-C chemokine receptor 2B (human) (UniProt P41597); assay: cell-based or functional assay
[2] = biological target: dog-human chimeric C-C chemokine receptor 2B (dog-human chimera (synthetic)); assay: cell-based or functional assay
dog-human chimeric C-C chemokine receptor 2B (dog-human chimera (synthetic)), sequence (chain, as listed by the source mutant limits assumed): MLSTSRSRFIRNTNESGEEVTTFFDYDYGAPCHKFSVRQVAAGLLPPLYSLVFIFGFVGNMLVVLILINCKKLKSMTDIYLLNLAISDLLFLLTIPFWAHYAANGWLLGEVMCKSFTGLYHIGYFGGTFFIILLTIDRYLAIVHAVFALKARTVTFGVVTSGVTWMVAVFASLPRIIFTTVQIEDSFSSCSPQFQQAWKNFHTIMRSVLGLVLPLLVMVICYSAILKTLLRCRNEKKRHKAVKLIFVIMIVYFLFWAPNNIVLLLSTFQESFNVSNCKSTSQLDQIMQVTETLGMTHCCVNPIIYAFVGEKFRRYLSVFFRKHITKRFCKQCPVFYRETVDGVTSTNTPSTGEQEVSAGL

human C-C chemokine receptor 2B (human), sequence (P41597 whole entry): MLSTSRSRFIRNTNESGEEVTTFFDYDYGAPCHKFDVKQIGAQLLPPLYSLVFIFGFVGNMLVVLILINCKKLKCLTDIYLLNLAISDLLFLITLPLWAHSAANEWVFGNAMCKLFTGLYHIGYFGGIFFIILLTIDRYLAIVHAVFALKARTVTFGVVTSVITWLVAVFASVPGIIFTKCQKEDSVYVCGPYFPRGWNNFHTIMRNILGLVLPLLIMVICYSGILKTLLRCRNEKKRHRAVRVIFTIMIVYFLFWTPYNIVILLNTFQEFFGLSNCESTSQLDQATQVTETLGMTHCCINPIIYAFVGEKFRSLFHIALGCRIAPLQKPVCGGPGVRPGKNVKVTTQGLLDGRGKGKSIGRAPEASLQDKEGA

Row | EC50 of calcium mobilization (FLIPR), THP-1 cells [1] | EC50 of MCP-1-dependent calcium mobilization (FLIPR), CHO-K1 cells expressing the chimeric receptor [2] | EC50 of MCP-1 signaling (calcium mobilization, FLIPR) in THP-1 cells [1] | calcium mobilization (FLIPR), THP-1 cells [1] | Substance
1 | 53 nM |  |  |  | canine monocyte chemoattractant protein-1 (from UniProt P52203 24-101) (ligand)
2 |  | 1.5 nM | 3 nM | 8 nM | human monocyte chemoattractant protein-1 (from UniProt P13500 24-99) (ligand)
3 | 30 nM |  |  |  | mouse monocyte chemoattractant protein-1 (from UniProt P10148 24-148) (ligand)
